Test results published in patent publication US20250154276A1 (ZONHON BIOPHARMA INSTITUTE, published 2025).

B1: 19G294 (bispecific antibody)
chain: DIVMTQSPSSLSVTPGERVSISCRSDKSLLHSNGNTYLYWFLQKPGQSPQVLIYRMSNLASGVPDRFSGSGSGTDFTLTISRVEAEDVGVYYCFQQLEYPYTFGQGTKLEIKGGGGSGGGGSGGGGSEVQLVQSGAELVKPGASVKLSCAASGFNIKDTYIYWVRQAPGQGLEWVGRIEPMNGNTKYDPKFQGRFTMTANTSKNTAYLQLSSLRSEDTAVYYCSRGGWLLLYVMDYWGQGTLVTVSSGGGGSDVQLVQSGAEVKKPGASVKVSCKASGYTFTRYTMHWVRQAPGQGLEWIGYINPSRGYTNYADSVKGRFTITTDKSTSTAYMELSSLRSEDTATYYCARYYDDHYCLDYWGQGTTVTVSSGGGGSGGGGSGGGGSDIVLTQSPATLSLSPGERATLSCRASQSVSYMNWYQQKPGKAPKRWIYDTSKVASGVPARFSGSGSGTDYSLTINSLEAEDAATYYCQQWSSNPLTFGGGTKVEIK
B2: ZA23 (bispecific antibody, human IgG1, kappa)
heavy 1: QVQLVQSGAEVVKPGASVKISCKASGFNIKDTYIYWVRQRTGQGLEWIGRIEPMNGNTKYDPKFQGRLTMTANTSKNTAYLQLSSLTSEDTAVYYCSRGGWLLLYVMDYWGQGTTVTVSSASTKGPSVFPLAPSSKSTSGGTAALGCLVKDYFPEPVTVSWNSGALTSGVHTFPAVLQSSGLYSLSSVVTVPSSSLGTQTYICNVNHKPSNTKVDKKVEPKSCDKTHTCPPCPAPEFLGGPSVFLFPPKPKDTLMISRTPEVTCVVVDVSQEDPEVQFNWYVDGVEVHNAKTKPREEQFNSTYRVVSVLTVLHQDWLNGKEYKCKVSNKGLPSSIEKTISKAKGQPREPQVYTLPPCQEEMTKNQVSLWCLVKGFYPSDIAVEWESNGQPENNYKTTPPVLDSDGSFFLYSRLTVDKSRWQEGNVFSCSVMHEALHNHYTQKSLSLSLGK
light 1: DIVMTQSASSLPVTPGEPASISCRSDKSLLHSNGNTYLYWFLQKPGQSPQVLIYRMSNLASGVPDRFSGSGSGTDFTLTISRVEAEDVGVYYCFQQLEYPYTFGQGTKLEIKRTVAAPSVFIFPPSDEQLKSGTASVVCLLNNFYPREAKVQWKVDNALQSGNSQESVTEQDSKDSTYSLSSTLTLSKADYEKHKVYACEVTHQGLSSPVTKSFNRGEC
heavy 2: DVQLVQSGAEVKKPGASVKVSCKASGYTFTRYTMHWVRQAPGQGLEWIGYINPSRGYTNYADSVKGRFTITTDKSTSTAYMELSSLRSEDTATYYCARYYDDHYCLDYWGQGTTVTVSSASTKGPSVFPCAPSSKSTSGGTAALGCLVKDYFPEPVTVSWNSGALTSGVHTFPAVLQSSGLYSLSSVVTVPSSSLGTQTYICNVNHKPSNTKVDKKVEPKSSDKTHTCPPCPAPEFLGGPSVFLFPPKPKDTLMISRTPEVTCVVVDVSQEDPEVQFNWYVDGVEVHNAKTKPREEQFNSTYRVVSVLTVLHQDWLNGKEYKCKVSNKGLPSSIEKTISKAKGQPREPQVCTLPPSQEEMTKNQVSLSCAVKGFYPSDIAVEWESNGQPENNYKTTPPVLDSDGSFFLVSRLTVDKSRWQEGNVFSCSVMHEALHNHYTQKSLSLSLGK
light 2: DIVLTQSPATLSLSPGERATLSCRASQSVSYMNWYQQKPGKAPKRWIYDTSKVASGVPARFSGSGSGTDYSLTINSLEAEDAATYYCQQWSSNPLTFGGGTKVEIKRTVAAPSVFICPPSDEQLKSGTASVVCLLNNFYPREAKVQWKVDNALQSGNSQESVTEQDSKDSTYSLSSTLTLSKADYEKHKVYACEVTHQGLSSPVTKSFNRGES
B3: ZA16 (bispecific antibody, human IgG1, kappa)
heavy 1: not shown
light 1: DIVMTQSPSSLSVTPGERVSISCRSDKSLLHSNGNTYLYWFLQKPGQSPQVLIYRMSNLASGVPDRFSGSGSGTDFTLTISRVEAEDVGVYYCFQQLEYPYTFGQGTKLEIKRTVAAPSVFIFPPSDEQLKSGTASVVCLLNNFYPREAKVQWKVDNALQSGNSQESVTEQDSKDSTYSLSSTLTLSKADYEKHKVYACEVTHQGLSSPVTKSFNRGEC
heavy 2: not shown
light 2: DIVLTQSPATLSLSPGERATLSCRASQSVSYMNWYQQKPGKAPKRWIYDTSKVASGVPARFSGSGSGTDYSLTINSLEAEDAATYYCQQWSSNPLTFGGGTKVEIKRTVAAPSVFICPPSDEQLKSGTASVVCLLNNFYPREAKVQWKVDNALQSGNSQESVTEQDSKDSTYSLSSTLTLSKADYEKHKVYACEVTHQGLSSPVTKSFNRGES
B4: 18G272 (bispecific antibody)
chain: DIVMTQSASSLPVTPGEPASISCRSDKSLLHSNGNTYLYWFLQKPGQSPQVLIYRMSNLASGVPDRFSGSGSGTDFTLTISRVEAEDVGVYYCFQQLEYPYTFGQGTKLEIKGGGGSGGGGSGGGGSQVQLVQSGAEVVKPGASVKISCKASGFNIKDTYIYWVRQRTGQGLEWIGRIEPMNGNTKYDPKFQGRLTMTANTSKNTAYLQLSSLTSEDTAVYYCSRGGWLLLYVMDYWGQGTTVTVSSGGGGSDVQLVQSGAEVKKPGASVKVSCKASGYTFTRYTMHWVRQAPGQGLEWIGYINPSRGYTNYADSVKGRFTITTDKSTSTAYMELSSLRSEDTATYYCARYYDDHYCLDYWGQGTTVTVSSGGGGSGGGGSGGGGSDIVLTQSPATLSLSPGERATLSCRASQSVSYMNWYQQKPGKAPKRWIYDTSKVASGVPARFSGSGSGTDYSLTINSLEAEDAATYYCQQWSSNPLTFGGGTKVEIK

What was measured:
human CD26 [1] = molecular target: T1, human CD26 (human, UniProt P27487 1-766); assay: cell-based or functional assay
human CD26 [2] = molecular target: T1, human CD26; assay: cell-based or functional assay; remark: listed apart in the source

| Binder | IC50 values (pM) of different bispecific antibodies mediating PBMC cytotoxicity to OS-RC-2 (human CD26 [1]) | IC50 values (pM) of different bispecific antibodies mediating PBMC cytotoxicity to different target cells (786-0) (human CD26 [2]) | IC50 values (pM) of different bispecific antibodies mediating PBMC cytotoxicity to different target cells (NCI-H226) (human CD26 [2]) | IC50 values (pM) of different bispecific antibodies mediating PBMC cytotoxicity to different target cells (OS-RC-2) (human CD26 [2]) | IC50 values (pM) of different bispecific antibodies mediating PBMC cytotoxicity to different target cells (PC-3) (human CD26 [2]) |
| --- | --- | --- | --- | --- | --- |
| B1 | 9.9 pM | 4.7 pM | 13.7 pM | 9.9 pM | 4 pM |
| B2 | 87.5 pM | – | – | – | – |
| B3 | 5.8 pM | – | – | – | – |
| B4 | – | 41.4 pM | 2.6 pM | 5.2 pM | 6.9 pM |
